B1: HPV45.E1.399 (peptide)
peptide: AVMCRHYKR
modifications: not checked
B2: HPV31.E1.253 (peptide)
peptide: MVMLMLVRFK
modifications: not checked
B3: HPV45.E2.322 (peptide)
peptide: STWHWTGCNK
modifications: not checked
B4: HPV31.E2.205 (peptide)
peptide: ISFAGIVTK
modifications: not checked
B5: HPV31.E6.72 (peptide)
peptide: KVSEFRWYRY
modifications: not checked
B6: HPV31.E1.15 HTL epitope (peptide)
peptide: NGWFYVEAVIDRQTG
modifications: not checked

target: HLA A0301 (human); assay: 125I-probe competition, purified HLA

Binder | IC50 [nM]
B1 | 311
B2 | 10
B3 | 14
B4 | 17
B5 | 213

target: HLA A1101 (human); assay: 125I-probe competition, purified HLA

Binder | IC50 [nM]
B1 | 38
B3 | 2.8
B4 | 1.6
B5 | 25

target: HLA A3101 (human); assay: 125I-probe competition, purified HLA

Binder | IC50 [nM]
B1 | 52
B3 | 54
B4 | 115
B5 | 3

target: HLA A3301 (human); assay: 125I-probe competition, purified HLA

Binder | IC50 [nM]
B1 | 24
B2 | 20
B3 | 428
B4 | 4370
B5 | 338

target: HLA A6801 (human); assay: 125I-probe competition, purified HLA

Binder | IC50 [nM]
B1 | 29
B2 | 10
B3 | 18
B5 | 192

target: HLA DRB1*0101 (human); assay: competition with 125I probe peptide, purified HLA

Binder | IC50 [nM]
B6 | 1860

target: HLA DRB1*0301 (human); assay: competition with 125I probe peptide, purified HLA

Binder | IC50 [nM]
B6 | 2800

target: HLA DRB1*0401 (human); assay: competition with 125I probe peptide, purified HLA

Binder | IC50 [nM]
B6 | 845

target: HLA DRB1*0404 (human); assay: competition with 125I probe peptide, purified HLA

Binder | IC50 [nM]
B6 | 18800

target: HLA DRB1*0405 (human); assay: competition with 125I probe peptide, purified HLA

Binder | IC50 [nM]
B6 | 178

target: HLA DRB1*0701 (human); assay: competition with 125I probe peptide, purified HLA

Binder | IC50 [nM]
B6 | 1460

target: HLA DRB1*0901 (human); assay: competition with 125I probe peptide, purified HLA

Binder | IC50 [nM]
B6 | 3670

target: HLA DRB4*0101 (human); assay: competition with 125I probe peptide, purified HLA

Binder | IC50 [nM]
B6 | 627

target: HLA DRB5*0101 (human); assay: competition with 125I probe peptide, purified HLA

Binder | IC50 [nM]
B6 | 1200

— patent publication US20100272750A1
